Tests used:
[1] = target: human recombinant adrenomedullin receptor (CRLR+RAMP3) (human)
[2] = target: human recombinant adrenomedullin receptor (CRLR+RAMP3) (human); remark: listed apart in the source

IC50 (read off the curve), inhibition of cAMP stimulation by 0.67 nM mADM [1]: 2000 nM
IC50 (read off the curve), inhibition of cAMP stimulation by 5.63 nM hADM [2]: 200 nM
Substance: human ADM 22-52 (from UniProt P35318) (peptide)

Source: US12662530
